Measured values as given in article PMC7595112, “Ketohexokinase-A acts as a nuclear protein kinase that mediates fructose-induced metastasis in breast cancer” (Nature Communications, 2020).

What was measured:
[1] = target: SLUG (SNAIL2) (UniProt O43623); assay: co-immunoprecipitation, immunoblot; conditions: reference: wild-type YWHAH; sites S25
[2] = target: T1, FLAG-LRRC59 purified from HEK293T cells (human, UniProt Q96AG4 1-307); assay: pull-down; purified His-KHK-A and FLAG-LRRC59 incubated 1 h at 4 °C with 1 mM fructose in 25 mM HEPES pH 7.5, 150 mM KCl, 12.5 mM MgCl2, 0.5 mM DTT, 0.1% NP-40, 10% glycerol; His-KHK-A pulled down with nickel-NTA, anti-Flag blot; conditions: both partners purified
T1 construct: leucine-rich repeat-containing protein 59, human cDNA NM_018509 cloned by RT-PCR into pcDNA-FLAG
T1 sequence (looked up): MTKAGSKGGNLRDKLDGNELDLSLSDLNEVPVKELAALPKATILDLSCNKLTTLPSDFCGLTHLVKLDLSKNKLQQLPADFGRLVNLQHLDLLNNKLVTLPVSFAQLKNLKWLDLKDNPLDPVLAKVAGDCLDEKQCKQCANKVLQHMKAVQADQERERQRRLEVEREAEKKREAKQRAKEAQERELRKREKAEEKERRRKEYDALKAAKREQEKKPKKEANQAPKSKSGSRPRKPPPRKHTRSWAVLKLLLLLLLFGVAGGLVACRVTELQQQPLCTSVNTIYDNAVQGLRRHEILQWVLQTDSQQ

YWHAH (14-3-3η) (from UniProt Q04917) YWHAH S25A
binding against the reference [1]: lost

B1: His(6)-KHK-A purified from HEK293T cells (enzyme, human)
chain: MEEKQILCVGLVVLDVISLVDKYPKEDSEIRCLSQRWQRGGNASNSCTVLSLLGAPCAFMGSMAPGHVADFVLDDLRRYSVDLRYTVFQTTGSVPIATVIINEASGSRTILYYDRSLPDVSATDFEKVDLTQFKWIHIEGRNASEQVKMLQRIDAHNTRQPPEQKIRVSVEVEKPREELFQLFGYGDVVFVSKDVAKHLGFQSAEEALRGLYGRVRKGAVLVCAWAEEGADALGPDGKLLHSDAFPPPRVVDTLGAGDTFNASVIFSLSQGRSVQEALRFGCQVAGKKCGLQGFDGIV
notes: ketohexokinase isoform A (KHK-A), human cDNA NM_000221 cloned by RT-PCR into pcDNA-His(6); also called His-KHK-A; purified KHK-A; source: HEK293T, purified (nickel-NTA beads, eluted with 250 mM imidazole)
binding result [2]: binds
